Source: patent publication US20230038638A1, “COMPLEMENT FACTOR I-RELATED COMPOSITIONS AND METHODS” (published 2023)
Residue numbers refer to the chain shown, from its start. “And” between values parts separate entries of the source, which are not always exact repeats. Equal values may be shown once.

Experiments:
human C4b (human) [1] = target: T1, human C4b (human) (UniProt P0C0L4)
T1 sequence: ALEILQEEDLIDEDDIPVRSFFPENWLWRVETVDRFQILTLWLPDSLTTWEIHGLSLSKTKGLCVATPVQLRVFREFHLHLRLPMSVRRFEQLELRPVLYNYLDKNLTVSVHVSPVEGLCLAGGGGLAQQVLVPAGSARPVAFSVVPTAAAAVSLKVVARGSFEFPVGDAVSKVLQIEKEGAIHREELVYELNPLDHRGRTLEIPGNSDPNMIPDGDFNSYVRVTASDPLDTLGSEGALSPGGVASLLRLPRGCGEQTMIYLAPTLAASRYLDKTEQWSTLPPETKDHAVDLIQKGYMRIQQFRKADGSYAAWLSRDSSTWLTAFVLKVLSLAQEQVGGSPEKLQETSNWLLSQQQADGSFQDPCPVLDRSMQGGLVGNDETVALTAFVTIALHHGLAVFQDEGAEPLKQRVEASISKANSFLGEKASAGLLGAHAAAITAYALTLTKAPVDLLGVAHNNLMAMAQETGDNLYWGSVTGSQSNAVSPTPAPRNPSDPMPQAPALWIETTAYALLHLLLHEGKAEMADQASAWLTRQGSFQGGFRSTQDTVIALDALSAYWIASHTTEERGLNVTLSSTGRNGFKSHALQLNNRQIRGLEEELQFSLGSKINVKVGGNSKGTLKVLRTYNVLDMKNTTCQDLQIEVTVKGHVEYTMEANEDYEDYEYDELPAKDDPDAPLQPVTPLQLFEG

[2] = target: soluble human C3b (human) (UniProt P01024)
human C4b (human) [3] = target: T1, human C4b (human); remark: listed apart in the source
[4] = target: soluble human C3b (human) (UniProt P01024); remark: listed apart in the source
human C4b (human) [5] = target: T2, human C4b (human) (UniProt P0C0L5)
T2 sequence: T1 sequence with A151T, D317G, P364L, C365S, L368I, D369H, N420S, V451A, L454R, S530A

| Substance | C4c EC50 (nM) (human C4b (human) [1]) | C4b Screen Ref Fold (fold of reference) (human C4b (human) [3]) | iC3b Screen Ref Fold (fold of reference) [4] | C4b Screen Ref Fold (fold of CFI-HSA wild type) (human C4b (human) [3]) | iC3b Screen Ref Fold (fold of CFI-HSA wild type) [4] | other results |
| --- | --- | --- | --- | --- | --- | --- |
| CFI-HSA variant E401G (enzyme) | 126 |  |  |  |  | iC3b EC50 [2]: 0.0089 µM |
| CFI-HSA variant N531G; E457G; E461Q; R462K (enzyme) |  |  |  |  |  | C4c EC50 (human C4b (human) [1]): 0.0184 µM; iC3b EC50 [2]: 0.0059 µM |
| CFI-HSA variant P384A (enzyme) |  | 0.29 | 0.03 |  |  | iC3b Screen Ref Fold (fold vs CFI-HSA wild type) [4]: 0.03; C4b Screen Ref Fold (fold vs CFI-HSA wild type) (human C4b (human) [5]): 0.07; C4c EC50 (human C4b (human) [1]): > 1 µM |
| CFI-HSA variant T346R; Y408L; N531G (enzyme) |  | 3.42 | 0.93 |  |  | C4c EC50 (human C4b (human) [1]): 0.204 µM |
| CFI-HSA variant Y408L; N531G; R557A (enzyme) | 54.5 |  |  |  |  | iC3b EC50 [2]: 0.0516 µM |
| CFI-HSA variant T377G; N531G (enzyme) | 19.2 |  |  |  |  | iC3b EC50 [2]: 0.0066 µM |
| CFI-HSA variant E457G; N531G; D425R; E530Y (enzyme) | 16.4 |  |  |  |  | iC3b EC50 [2]: 0.0044 µM |
| CFI-HSA variant R365A (enzyme) | > 1000 |  |  |  |  | iC3b EC50 [2]: 0.0643 µM |
| CFI-HSA variant L307A (enzyme) |  |  |  |  |  | C4c EC50 (human C4b (human) [1]): 0.0934 µM; iC3b EC50 [2]: 0.0171 µM |
| CFI-HSA variant T377G; E461Q (enzyme) | 28.4 |  |  |  |  | iC3b EC50 [2]: 0.0065 µM |
| CFI-HSA variant N531G; E457G; R462K (enzyme) |  |  |  |  |  | C4c EC50 (human C4b (human) [1]): 0.0173 µM; iC3b EC50 [2]: 0.0077 µM |
| CFI-HSA variant R557E (enzyme) | 151 |  |  |  |  | iC3b EC50 [2]: > 0.5 µM |
| CFI-HSA variant R557G (enzyme) | 143 |  |  |  |  | iC3b EC50 [2]: > 0.5 µM |
| CFI-HSA variant E461T (enzyme) | 125 | 3.24 | 1.53 |  |  |  |
| CFI-HSA variant E416A; E457G; E461Q; F464Y; N531G (enzyme) | 12 |  |  | 4.74 | 1.79 |  |
| CFI-HSA variant D459G (enzyme) | 348 |  |  |  |  | iC3b EC50 [2]: 0.0246 µM |
| CFI-HSA variant T377G; E457G (enzyme) | 20.7 |  |  |  |  | iC3b EC50 [2]: 0.0059 µM |
| CFI-HSA variant N531Q (enzyme) | 310 | 3.46 | 0.69 |  |  |  |
| CFI-HSA variant G406D; N531G (enzyme) |  | 6.15 | 0.83 |  |  | C4c EC50 (human C4b (human) [1]): 0.124 µM |
| CFI-HSA variant N531F (enzyme) | 183 | 1.98 | 1.09 |  |  |  |
| CFI-HSA variant Y408L; E416A; E457G; E461Q; R462K; N531G (enzyme) | 17.8 |  |  | 4.04 | 1.63 |  |
| CFI-HSA variant E457P (enzyme) | > 1000 | 0.01 | 0.07 |  |  |  |
| CFI-HSA variant G406K (enzyme) |  | 0.77 | 1.28 |  |  | C4c EC50 (human C4b (human) [1]): 0.183 µM |
| CFI-HSA variant K14A; Y20F; D26A; R35A; E38A; L304G; P305G; K306G; L307G; S308G (enzyme) | > 1000 | 4.19 | 0.04 |  |  |  |

| Substance | C4c EC50 (nM) (human C4b (human) [1]) | C4b Screen Ref Fold (fold of reference) (human C4b (human) [3]) | iC3b Screen Ref Fold (fold of reference) [4] | C4b Screen Ref Fold (fold of CFI-HSA wild type) (human C4b (human) [3]) | iC3b Screen Ref Fold (fold of CFI-HSA wild type) [4] | other results |
| --- | --- | --- | --- | --- | --- | --- |
| CFI-HSA variant N531S (enzyme) | 176 | 2.21 | 1.16 |  |  |  |
| CFI-HSA variant N404G (enzyme) |  | 0.53 | 0.94 |  |  | iC3b Screen Ref Fold (fold vs CFI-HSA wild type) [4]: 0.68; C4b Screen Ref Fold (fold vs CFI-HSA wild type) (human C4b (human) [5]): 0.31; C4c EC50 (human C4b (human) [1]): 0.31 µM |
| CFI-HSA variant Y408F; E457G; E461Q; R462K; F464Y; N531G (enzyme) | 13.2 |  |  | 4.57 | 1.87 |  |
| CFI-HSA variant Y408F; E416A; E457G; E461Q; R462K; N531G (enzyme) | 11.5 |  |  | 4.51 | 1.99 |  |
| CFI-HSA variant E457G; E461Q; R462K; F464Y; N531G; R557K (enzyme) | 12.4 |  |  | 4.47 | 1.49 |  |
| CFI-HSA variant G406D; Y408L; N531G (enzyme) |  | 5.16 | 0.93 |  |  | C4c EC50 (human C4b (human) [1]): 0.178 µM |
| CFI-HSA variant G406D; N531G; P535A (enzyme) |  | 5.98 | 0.88 |  |  | C4c EC50 (human C4b (human) [1]): 0.129 µM |
| CFI-HSA variant E457G; E461Q; R462K; F464Y; K504H; N531G (enzyme) | 51.7 |  |  | 4.01 | 2 |  |
| CFI-HSA variant E457G; E461Q; F464Y; E530Y; N531G; P558S (enzyme) | 32.4 |  |  | 4.03 | 2.44 |  |
| CFI-HSA variant Y408F; E457G; E461Q; N531G (enzyme) | 51 |  |  | 4.63 | 1.42 |  |
| CFI-HSA variant E457G; E461Q; F464Y; N531G; R557K (enzyme) | 10.6 |  |  | 4.54 | 2.17 |  |
| CFI-HSA variant Y408F; E457G; E461Q; R462K; N531G (enzyme) | 14.4 |  |  | 4.58 | 1.9 |  |
| CFI-HSA variant Y408L; E457G; E461Q; R462K; K504H; N531G (enzyme) | 27.5 |  |  | 3.83 | 0.84 |  |
| CFI-HSA variant E457G; E461Q; R462K; F464Y; E530Y; N531G; P558S (enzyme) | 30 |  |  | 4.51 | 2.69 |  |
| CFI-HSA variant E457G; E461Q; K504H; N531G (enzyme) | 39 |  |  | 3.91 | 1.2 |  |
| CFI-HSA variant N531D (enzyme) | 77.2 | 4.91 | 1.52 |  |  |  |
| CFI-HSA variant Y408F; E457G; E461Q; F464Y; N531G (enzyme) | 15.1 |  |  | 4.43 | 1.81 |  |
| CFI-HSA variant E457G; E461Q; E530F; N531G; P558S (enzyme) | 17.8 |  |  | 4.57 and 4.37 | 1.37 and 1.5 |  |
| CFI-HSA variant G406D; Y408L; N531G; P535A (enzyme) |  | 5.44 | 0.96 |  |  | C4c EC50 (human C4b (human) [1]): 0.102 µM |
| CFI-HSA variant Y408L; E457G; E461Q; R462K; E530Y; N531G; P558S (enzyme) | 27.3 |  |  | 4.18 | 2.06 |  |
| CFI-HSA variant Y408L; E457G; E461Q; R462K (enzyme) | 90.2 |  |  |  |  | iC3b Screen Ref Fold (fold vs CFI-HSA wild type) [4]: 0.89; C4b Screen Ref Fold (fold vs CFI-HSA wild type) (human C4b (human) [5]): 3.98 |
| CFI-HSA variant Y408L; E457G; E461Q; R462K; E530F; N531G; P558S (enzyme) | 148 |  |  | 3.96 | 1.81 |  |
| CFI-HSA variant Y408L; N531G; K534Q (enzyme) |  |  |  |  | 1.03 | C4b Screen Ref Fold (fold of CFI-HSA wild type) (human C4b (human) [5]): 5.13; C4c EC50 (human C4b (human) [1]): 0.0643 µM |
